Laboratory results: the supplement of paper PMC6757056
± gives the standard deviation of the averaged measurements.

B1: library; a variant is named by its letters at N, in order (parent)
chain: GCUGUCACCGGUGUAUUACCCUAGUGGUCGACCGGUCUGAUGAGUCUNNNNNNAGACGAAACAGC

How the values were obtained:
hypoxanthine [1] = variants of: B1; assay: FACS-Seq fitted mean relative fluorescence mCherry/BFP without ligand (log10 relative fluorescence); ligand: hypoxanthine (xanthine aptamer); higher = higher reporter protein expression; settings: HEK293T, ligand present: no
Outline: (§1)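 An mCherry reporter containing the ribozyme switch and an EF1α-BFP marker were introduced by lentivirus into HEK293T libraries. Cells were enriched, incubated 48 h with or without ligand, sorted into 6 bins by mCherry/BFP, and bin genomic DNA was PCR-amplified, barcoded and sequenced on MiSeq. Fluorescence represents the normalized fitted normal mean of the bin counts. Fitting was done on log10(mCherry/BFP), scaling to five spiked-in control ribozymes.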

hypoxanthine [2] = variants of: B1; assay: normalized RNA/DNA level with ligand (relative to sTRSVctl = 100) (log10 (% of sTRSVctl)); ligand: hypoxanthine (xanthine aptamer); higher = less ribozyme self-cleavage, higher mRNA level; settings: ligand concentration (+) RNA-Seq: 5 mM, HEK293T, reporter: mCherry (pCS4076), ligand present: yes
Description: (§2)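 Hammerhead (sTRSV) ribozyme switch libraries with a ligand aptamer grafted on stem I and a randomized N4-6 loop II, cloned into the 3' UTR of mCherry and transiently transfected into HEK293T cells; RNA-Seq 72 h post transfection with ligand added 1 h before transfection; RNA read count / plasmid DNA read count normalized to the non-cleaving sTRSVctl (x100), log10; sequences with >100 DNA reads. FACS-Seq: lentiviral library sorted into 6 bins after 48 h ligand, log-normal fit mean of mCherry/BFP scaled to controls. Printed sequences are partial switch sequences.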

hypoxanthine [3] = variants of: B1; assay: normalized RNA/DNA level without ligand (relative to sTRSVctl = 100) (log10 (% of sTRSVctl)); ligand: hypoxanthine (xanthine aptamer); higher = less ribozyme self-cleavage, higher mRNA level; settings: HEK293T, reporter: mCherry (pCS4076), ligand present: no
Description: as §2

hypoxanthine [4] = variants of: B1; assay: FACS-Seq fitted mean relative fluorescence mCherry/BFP with ligand (log10 relative fluorescence); ligand: hypoxanthine (xanthine aptamer); ligand concentration (+) FACS-Seq: 5 mM; higher = higher reporter protein expression; settings: HEK293T, ligand present: yes
Outline: as §1

Row | Variant | FACS-Seq fitted mean (log10) (hypoxanthine [1]) | normalized RNA/DNA level with ligand (log10) (hypoxanthine [2]) | normalized RNA/DNA level without ligand (log10) (hypoxanthine [3]) | FACS-Seq fitted mean (log10) (hypoxanthine [4])
1 | GAUCAU | 0.447 ± 0.026 | 1.91 ± 0.033 | 1.919 ± 0.018 | 0.521 ± 0.023
2 | GAUCAA | 0.497 ± 0.07 | 1.9 ± 0.03 | 1.833 ± 0.0048 | 0.708 ± 0.034
3 | GAUCAC | 0.374 ± 0.035 | 1.99 ± 0.068 | 1.87 ± 0.025 | 0.417 ± 0.071
4 | AAGCCA | -0.28 ± 0.034 | 1.94 ± 0.039 | 1.76 ± 0.021 | 0.134 ± 0.017
5 | AAGCCG | 0.00433 ± 0.082 | 1.728 ± 0.013 | 1.26 ± 0.04 | 0.4844 ± 0.0029
6 | UAGGUG | 0.399 ± 0.065 | 1.89 ± 0.079 | 1.61 ± 0.035 | 0.591 ± 0.012
7 | UAGGUC | 0.588 ± 0.034 | 1.978 ± 0.0051 | 1.95 ± 0.054 | 0.577 ± 0.036
8 | CAUAGA | 1.171 ± 0.0012 | 1.931 ± 0.0061 | 1.767 ± 0.0051 | 0.849 ± 0.08
9 | CAUCGA | 0.435 ± 0.017 | 1.97 ± 0.052 | 1.84 ± 0.029 | 0.6297 ± 0.0034
10 | GAUCGG | 0.125 ± 0.0082 | 1.911 ± 0.012 | 1.59 ± 0.07 | 0.418 ± 0.018
11 | CAGUGG | 0.315 ± 0.042 | 1.9 ± 0.024 | 1.32 ± 0.043 | 0.629 ± 0.11
12 | CAGUGA | 0.406 ± 0.012 | 1.89 ± 0.076 | 1.71 ± 0.057 | 0.487 ± 0.032
13 | CAGUGU | 0.44 ± 0.086 | 1.924 ± 0.002 | 1.87 ± 0.016 | 0.795 ± 0.017
14 | AAUAGU | 0.36 ± 0.029 | 1.87 ± 0.027 | 1.61 ± 0.016 | 0.505 ± 0.041
15 | AAUAGA | 0.386 ± 0.012 | 1.89 ± 0.027 | 1.63 ± 0.052 | 0.44 ± 0.055
16 | AAUAGG | 0.109 ± 0.012 | 1.75 ± 0.046 | 1.28 ± 0.1 | 0.509 ± 0.025
17 | AAUAGC | 0.38 ± 0.038 | 1.924 ± 0.0031 | 1.734 ± 0.0066 | 0.681 ± 0.17
18 | UAUCGG | 0.2578 ± 0.0003 | 1.86 ± 0.024 | 1.47 ± 0.027 | 0.5888 ± 0.0049
19 | UAUCGC | 0.437 ± 0.11 | 1.947 ± 0.015 | 1.86 ± 0.047 | 0.239 ± 0.064
20 | AAGGAA | 0.159 ± 0.16 | 1.869 ± 0.015 | 1.53 ± 0.0077 | 0.411 ± 0.07
21 | AAGGAU | 0.678 ± 0.038 | 1.91 ± 0.037 | 1.653 ± 0.013 | 0.732 ± 0.042
22 | AAGGAG | 0.245 ± 0.003 | 1.62 ± 0.068 | 1.12 ± 0.047 | 0.589 ± 0.11
23 | UAUACU | 0.344 ± 0.0075 | 1.93 ± 0.05 | 1.84 ± 0.065 | 0.343 ± 0.066
24 | UAUACA | 0.641 ± 0.013 | 1.93 ± 0.053 | 1.854 ± 0.012 | 0.518 ± 0.019

Row | Variant | FACS-Seq fitted mean (log10) (hypoxanthine [1]) | normalized RNA/DNA level with ligand (log10) (hypoxanthine [2]) | normalized RNA/DNA level without ligand (log10) (hypoxanthine [3]) | FACS-Seq fitted mean (log10) (hypoxanthine [4])
25 | GAUACG | -0.036 ± 0.019 | 1.87 ± 0.035 | 1.488 ± 0.0049 | 0.37 ± 0.033
26 | GAUACA | 0.774 ± 0.022 | 1.93 ± 0.095 | 1.83 ± 0.0097 | 0.711 ± 0.11
27 | UAGGCC | 0.378 ± 0.066 | 2.002 ± 0.0047 | 1.954 ± 0.0025 | 0.564 ± 0.03
28 | UAUCAA | 0.456 ± 0.02 | 1.91 ± 0.029 | 1.81 ± 0.021 | 0.414 ± 0.055
29 | UAUCAC | 0.6449 ± 0.00099 | 1.909 ± 0.012 | 1.86 ± 0.04 | 0.584 ± 0.023
30 | AAGUGU | 0.111 ± 0.029 | 1.89 ± 0.046 | 1.571 ± 0.015 | 0.229 ± 0.011
31 | AAGUGA | -0.0239 ± 0.018 | 1.81 ± 0.02 | 1.47 ± 0.019 | 0.0676 ± 0.035
32 | AAGUGG | 0.227 ± 0.067 | 1.57 ± 0.1 | 1.093 ± 0.0029 | 0.765 ± 0.065
33 | CAGGUA | -0.0109 ± 0.015 | 1.757 ± 0.016 | 1.57 ± 0.014 | 0.148 ± 0.04
34 | AAGGGU | 0.236 ± 0.0092 | 1.835 ± 0.0086 | 1.54 ± 0.072 | 0.4 ± 0.093
35 | AAGGGG | 0.115 ± 0.014 | 1.78 ± 0.031 | 1.203 ± 0.002 | 0.386 ± 0.1
36 | AAGGGC | 0.365 ± 0.031 | 1.9146 ± 0.00071 | 1.75 ± 0.023 | 0.576 ± 0.022
37 | AAGGGA | 0.273 ± 0.057 | 1.83 ± 0.035 | 1.44 ± 0.017 | 0.545 ± 0.02
38 | UAGCAA | 0.0307 ± 0.043 | 1.9 ± 0.026 | 1.739 ± 0.0055 | 0.155 ± 0.024
39 | UAGCAG | 0.215 ± 0.033 | 1.87 ± 0.02 | 1.61 ± 0.038 | 0.507 ± 0.05
40 | AAUCCU | 0.417 ± 0.063 | 1.94 ± 0.04 | 1.887 ± 0.008 | 0.433 ± 0.13
41 | AAUCCG | 0.134 ± 0.0095 | 1.86 ± 0.073 | 1.423 ± 0.0043 | 0.584 ± 0.0084
42 | GAUAGA | 0.3713 ± 0.0031 | 1.89 ± 0.052 | 1.592 ± 0.01 | 0.547 ± 0.025
43 | GAUAGG | -0.0874 ± 0.036 | 1.737 ± 0.017 | 1.27 ± 0.04 | 0.506 ± 0.068
44 | AAGCGG | -0.261 ± 0.031 | 1.65 ± 0.026 | 1.2 ± 0.027 | 0.442 ± 0.054
45 | AAGCGU | 0.27 ± 0.0081 | 1.89 ± 0.05 | 1.62 ± 0.035 | 0.579 ± 0.013
46 | AAGCGA | 0.221 ± 0.0035 | 1.91 ± 0.052 | 1.43 ± 0.024 | 0.391 ± 0.04
47 | UAGUGG | 0.242 ± 0.04 | 1.861 ± 0.015 | 1.41 ± 0.019 | 0.511 ± 0.035
48 | UAGUGA | 0.153 ± 0.015 | 1.88 ± 0.033 | 1.57 ± 0.041 | 0.438 ± 0.039

Row | Variant | FACS-Seq fitted mean (log10) (hypoxanthine [1]) | normalized RNA/DNA level with ligand (log10) (hypoxanthine [2]) | normalized RNA/DNA level without ligand (log10) (hypoxanthine [3]) | FACS-Seq fitted mean (log10) (hypoxanthine [4])
49 | UAGUGU | 0.0263 ± 0.029 | 1.9 ± 0.065 | 1.45 ± 0.063 | 0.449 ± 0.12
50 | AAGCAA | 0.4932 ± 0.00094 | 1.899 ± 0.0026 | 1.61 ± 0.053 | 0.591 ± 0.03
51 | AAGCAG | -0.122 ± 0.013 | 1.64 ± 0.044 | 1.19 ± 0.02 | 0.501 ± 0.039
52 | AAUCUA | 0.651 ± 0.051 | 1.922 ± 0.014 | 1.8 ± 0.059 | 0.6869 ± 0.0045
53 | CAGCAU | 0.36 ± 0.085 | 1.947 ± 0.0067 | 1.71 ± 0.029 | 0.642 ± 0.028
54 | CAGUAG | 0.475 ± 0.064 | 1.91 ± 0.11 | 1.57 ± 0.026 | 0.586 ± 0.0075
55 | CAGUAU | 0.355 ± 0.032 | 1.92 ± 0.031 | 1.61 ± 0.062 | 0.629 ± 0.094
56 | GAGAUG | 0.1129 ± 0.00042 | 1.65 ± 0.064 | 1.14 ± 0.05 | 0.707 ± 0.033
57 | GAGUAG | -0.0875 ± 0.065 | 1.57 ± 0.033 | 1.13 ± 0.05 | 0.421 ± 0.051
58 | GAGUAC | 0.301 ± 0.14 | 1.907 ± 0.019 | 1.71 ± 0.041 | 0.51 ± 0.013
59 | GAGUAA | 0.154 ± 0.061 | 1.878 ± 0.015 | 1.54 ± 0.023 | 0.427 ± 0.056
60 | GAGUAU | 0.3631 ± 0.0016 | 1.913 ± 0.0071 | 1.69 ± 0.021 | 0.472 ± 0.017
61 | CAGGGG | 0.166 ± 0.0056 | 1.75 ± 0.036 | 1.23 ± 0.06 | 0.48135 ± 0.00032
62 | GAGGUG | 0.14 ± 0.057 | 1.78 ± 0.031 | 1.33 ± 0.025 | 0.551 ± 0.026
63 | AAGCUG | 0.17 ± 0.068 | 1.72 ± 0.032 | 1.23 ± 0.054 | 0.481 ± 0.046
64 | UAGGGG | 0.118 ± 0.086 | 1.87 ± 0.037 | 1.5 ± 0.022 | 0.393 ± 0.018
65 | UAGGGU | 0.526 ± 0.034 | 1.84 ± 0.067 | 1.5 ± 0.027 | 0.632 ± 0.075
66 | GAUAAA | 0.6 ± 0.041 | 1.919 ± 0.009 | 1.764 ± 0.0024 | 0.621 ± 0.12
67 | GAUAAG | -0.0234 ± 0.075 | 1.81 ± 0.027 | 1.36 ± 0.025 | 0.43 ± 0.02
68 | GAUAAU | -0.0227 ± 0.0069 | 1.909 ± 0.0021 | 1.78 ± 0.026 | 0.133 ± 0.006
69 | GAGUGU | 0.458 ± 0.014 | 1.86 ± 0.036 | 1.6 ± 0.062 | 0.69 ± 0.053
70 | GAGUGG | -0.253 ± 0.023 | 1.59 ± 0.12 | 1.13 ± 0.067 | 0.299 ± 0.042
71 | GAGUGA | 0.22 ± 0.019 | 1.87 ± 0.066 | 1.453 ± 0.012 | 0.468 ± 0.065
72 | GAGUGC | 0.0552 ± 0.013 | 1.876 ± 0.005 | 1.501 ± 0.013 | 0.361 ± 0.045
